Measurements reported in paper PMC5971111 (Nature structural & molecular biology, 2018).

Assays:
Test in all cases: […]
[1] = target: T1, Sec8 (S. cerevisiae, UniProt P32855 1-1065)
T1 sequence: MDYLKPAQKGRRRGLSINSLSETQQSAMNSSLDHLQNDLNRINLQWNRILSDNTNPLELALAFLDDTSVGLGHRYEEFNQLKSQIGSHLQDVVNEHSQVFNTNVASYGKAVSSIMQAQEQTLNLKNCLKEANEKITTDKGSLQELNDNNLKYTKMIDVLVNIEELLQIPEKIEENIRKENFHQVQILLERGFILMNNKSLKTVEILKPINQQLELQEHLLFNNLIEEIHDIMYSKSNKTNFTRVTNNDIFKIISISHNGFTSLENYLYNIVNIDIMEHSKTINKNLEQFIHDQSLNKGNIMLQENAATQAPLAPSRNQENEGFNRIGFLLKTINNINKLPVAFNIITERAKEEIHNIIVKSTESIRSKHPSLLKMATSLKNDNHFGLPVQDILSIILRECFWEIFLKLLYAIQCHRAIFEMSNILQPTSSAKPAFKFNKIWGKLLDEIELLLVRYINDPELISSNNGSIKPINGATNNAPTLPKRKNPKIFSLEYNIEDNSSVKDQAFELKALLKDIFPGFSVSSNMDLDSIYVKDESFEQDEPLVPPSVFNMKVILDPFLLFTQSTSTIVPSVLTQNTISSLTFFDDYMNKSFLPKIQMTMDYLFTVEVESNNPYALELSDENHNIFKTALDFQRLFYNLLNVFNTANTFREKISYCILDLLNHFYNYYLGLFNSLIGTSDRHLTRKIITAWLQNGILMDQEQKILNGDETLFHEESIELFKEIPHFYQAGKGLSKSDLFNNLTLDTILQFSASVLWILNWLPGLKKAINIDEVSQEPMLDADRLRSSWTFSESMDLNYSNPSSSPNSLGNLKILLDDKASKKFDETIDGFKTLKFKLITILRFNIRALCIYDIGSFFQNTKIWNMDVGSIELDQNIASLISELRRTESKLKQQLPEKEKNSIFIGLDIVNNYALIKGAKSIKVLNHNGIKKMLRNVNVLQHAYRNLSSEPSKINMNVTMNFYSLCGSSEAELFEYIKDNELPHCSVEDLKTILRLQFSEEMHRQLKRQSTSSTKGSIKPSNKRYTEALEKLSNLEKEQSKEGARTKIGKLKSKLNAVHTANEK

[2] = target: T2, Sec3 (S. cerevisiae, UniProt P33332 1-1336)
T2 sequence: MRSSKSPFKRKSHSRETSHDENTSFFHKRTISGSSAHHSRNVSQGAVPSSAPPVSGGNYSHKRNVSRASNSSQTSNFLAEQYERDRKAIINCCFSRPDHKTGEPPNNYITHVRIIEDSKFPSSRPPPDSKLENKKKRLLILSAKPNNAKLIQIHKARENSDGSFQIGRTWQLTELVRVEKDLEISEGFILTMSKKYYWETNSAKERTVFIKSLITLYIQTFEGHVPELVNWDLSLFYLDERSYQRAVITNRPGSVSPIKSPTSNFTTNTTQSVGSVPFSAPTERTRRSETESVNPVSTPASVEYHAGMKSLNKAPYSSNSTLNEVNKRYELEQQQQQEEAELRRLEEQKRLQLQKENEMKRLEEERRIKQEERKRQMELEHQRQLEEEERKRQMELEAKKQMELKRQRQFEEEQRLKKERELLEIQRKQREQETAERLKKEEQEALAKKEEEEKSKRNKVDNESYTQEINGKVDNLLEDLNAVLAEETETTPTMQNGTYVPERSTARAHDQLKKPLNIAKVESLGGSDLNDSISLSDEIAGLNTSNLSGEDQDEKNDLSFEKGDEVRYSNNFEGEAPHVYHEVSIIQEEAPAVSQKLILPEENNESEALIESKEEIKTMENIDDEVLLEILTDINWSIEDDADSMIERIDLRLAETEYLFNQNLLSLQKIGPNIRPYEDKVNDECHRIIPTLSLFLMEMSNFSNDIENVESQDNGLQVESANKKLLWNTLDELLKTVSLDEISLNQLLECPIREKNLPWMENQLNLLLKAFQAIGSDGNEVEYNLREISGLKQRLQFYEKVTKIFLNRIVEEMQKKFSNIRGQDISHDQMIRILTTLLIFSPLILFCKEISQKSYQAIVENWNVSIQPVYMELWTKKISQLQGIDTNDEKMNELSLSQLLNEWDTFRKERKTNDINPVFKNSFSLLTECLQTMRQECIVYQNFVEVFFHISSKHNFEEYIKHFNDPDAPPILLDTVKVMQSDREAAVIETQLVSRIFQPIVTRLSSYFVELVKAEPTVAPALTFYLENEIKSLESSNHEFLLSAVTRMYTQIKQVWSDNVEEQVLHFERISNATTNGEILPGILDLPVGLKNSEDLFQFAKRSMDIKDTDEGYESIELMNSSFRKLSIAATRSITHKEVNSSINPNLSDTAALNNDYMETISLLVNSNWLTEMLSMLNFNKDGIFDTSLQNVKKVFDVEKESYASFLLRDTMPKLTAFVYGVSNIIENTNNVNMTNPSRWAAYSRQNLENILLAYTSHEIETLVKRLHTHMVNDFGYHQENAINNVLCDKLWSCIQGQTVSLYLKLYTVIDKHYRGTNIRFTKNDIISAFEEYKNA

[3] = target: T3, Sec15 (S. cerevisiae, UniProt P22224 1-910)
T3 sequence: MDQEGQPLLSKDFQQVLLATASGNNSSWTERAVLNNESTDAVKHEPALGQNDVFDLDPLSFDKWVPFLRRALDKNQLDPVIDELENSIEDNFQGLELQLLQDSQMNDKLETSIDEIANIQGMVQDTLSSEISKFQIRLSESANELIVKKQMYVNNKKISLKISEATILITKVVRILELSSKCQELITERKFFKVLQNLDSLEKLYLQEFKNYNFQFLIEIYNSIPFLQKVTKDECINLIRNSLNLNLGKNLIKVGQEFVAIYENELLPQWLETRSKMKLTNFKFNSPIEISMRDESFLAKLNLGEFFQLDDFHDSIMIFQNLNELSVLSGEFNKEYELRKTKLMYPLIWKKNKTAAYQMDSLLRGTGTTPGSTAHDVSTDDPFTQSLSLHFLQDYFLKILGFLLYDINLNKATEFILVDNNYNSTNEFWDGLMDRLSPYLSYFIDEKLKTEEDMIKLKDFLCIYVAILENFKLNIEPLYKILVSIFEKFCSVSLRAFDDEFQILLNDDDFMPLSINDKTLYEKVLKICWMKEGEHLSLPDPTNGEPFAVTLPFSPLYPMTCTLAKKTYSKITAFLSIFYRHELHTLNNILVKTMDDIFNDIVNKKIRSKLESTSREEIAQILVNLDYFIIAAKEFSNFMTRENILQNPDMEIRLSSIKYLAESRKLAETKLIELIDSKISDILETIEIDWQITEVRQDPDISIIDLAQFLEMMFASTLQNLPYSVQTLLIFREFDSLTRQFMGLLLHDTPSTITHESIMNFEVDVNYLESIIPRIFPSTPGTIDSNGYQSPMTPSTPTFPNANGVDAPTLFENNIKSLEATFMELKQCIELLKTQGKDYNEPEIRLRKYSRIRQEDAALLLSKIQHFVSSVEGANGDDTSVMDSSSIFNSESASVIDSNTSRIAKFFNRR

[4] = target: T4, Sec5 (S. cerevisiae, UniProt P89102 1-971)
T4 sequence: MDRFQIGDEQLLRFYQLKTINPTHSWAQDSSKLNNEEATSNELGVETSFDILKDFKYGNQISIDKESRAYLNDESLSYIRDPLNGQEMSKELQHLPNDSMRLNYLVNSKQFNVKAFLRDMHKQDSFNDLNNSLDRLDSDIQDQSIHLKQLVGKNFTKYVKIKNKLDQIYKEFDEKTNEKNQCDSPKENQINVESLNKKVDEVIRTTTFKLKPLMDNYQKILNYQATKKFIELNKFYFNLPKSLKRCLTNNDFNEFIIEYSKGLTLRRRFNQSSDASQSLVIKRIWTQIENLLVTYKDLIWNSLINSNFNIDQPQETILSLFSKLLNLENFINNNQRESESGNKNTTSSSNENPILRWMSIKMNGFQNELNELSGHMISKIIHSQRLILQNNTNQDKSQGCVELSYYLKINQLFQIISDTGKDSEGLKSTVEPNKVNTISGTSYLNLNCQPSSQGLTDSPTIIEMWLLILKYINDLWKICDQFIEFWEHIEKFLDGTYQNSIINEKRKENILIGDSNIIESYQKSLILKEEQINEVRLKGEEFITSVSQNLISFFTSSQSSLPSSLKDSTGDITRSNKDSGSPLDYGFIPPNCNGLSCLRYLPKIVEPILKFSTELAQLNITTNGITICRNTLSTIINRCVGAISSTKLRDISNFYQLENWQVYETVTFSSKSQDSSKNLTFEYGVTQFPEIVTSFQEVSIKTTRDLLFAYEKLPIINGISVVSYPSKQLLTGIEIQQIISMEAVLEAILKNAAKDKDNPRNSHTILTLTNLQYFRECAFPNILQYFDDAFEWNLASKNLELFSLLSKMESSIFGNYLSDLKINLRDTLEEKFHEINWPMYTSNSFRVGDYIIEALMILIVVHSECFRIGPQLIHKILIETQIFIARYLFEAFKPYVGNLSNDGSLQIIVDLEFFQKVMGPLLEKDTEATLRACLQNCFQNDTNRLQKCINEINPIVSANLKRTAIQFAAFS

Row | Binder | binding result [1] | binding result [2] | binding result [3] | binding result [4]
1 | Sec10 (natural protein) MNSLYELDPKWKKLLKTDNFLGGLTVNEFVQELSKDHRNDVLIDANTKNLPTNEKDQDAIREAIWKQLDPKPYIRTFESTLKELKNLNEETLNKRQYFSEQVATQEVIHSENVIKLSKDLHTTLLTFDKLDDRLTNVTQVVSPLGDKLETAIKKKQNYIQSVELIRRYNDFYSMGKSDIVEQLRLSKNWKLNLKSVKLMKNLLILSSKLETSSIPKTINTKLVIEKYSEMMENELLENFNSAYRENNFTKLNEIAIILNNFNGGVNVIQSFINQHDYFIDTKQIDLENEFENVFIKNVKFKEQLIDFENHSVIIETSMQNLINDVETVIKNESKIVKRVFEEKATHVIQLFIQRVFAQKIEPRFEVLLRNSLSISNLAYVRILHGLFTLFGKFTKSLIDYFQLLEIDDSNQILSTTLEQCFADLFSHYLYDRSKYFGIEKRSLEAILVDMTSKFTVNYDKEINKRVLLDKYKEKLSTNVDAFMHSPRGNTHSRQDSTSRSKLSQFNSFLKTHLDKDHLSLNRTNTLSDSFNNSSSSTQYDVANNSSSLVNSSFTASDIDNSPNSPANYSLNDVDSMLKCVVESTARVMELIPNKAHLYILEILKIMFLGIVDSYMEIALEVAYWKICKVDINKTAGVVNLNFLKFISMSTEILDLLSISIKSIFLPLLNNSPEIKAQIIEMTNSQIQKMEILINIILQETITVISTKFSAILCKQKKKDFVPKSQELLDQDTLPAIEIVNILNLIFEQSSKFLKGKNLQTFLTLIGEELYGLLLSHYSHFQVNSIGGVVVTKDIIGYQTAIEDWGVASLIDKFATLRELANLFTVQPELLESLTKEGHLADIGRDIIQSYISNREDFNHDNFINSVKLNFR | binds | binds | binds | 
2 | Sec6 (natural protein) MSSDPLQQVCDLIKGDLSLERVRDIKEQLLKEKSVVEYQLNKESDKYYGEVEESLKLLNLSKNSVTSIKQQINEVNKLGNDNRFAINRYDILFRATKLYETVNTTSSIYDRIYNFVALMEHIERLLVAELAEDALETGCPHLLEIHFLLTSARDFQEQVVVMAKEATEDAQRTVMKLFSRLSGIISKFDKLLDGLTYDIVEMARAEQISLAIRLFKIYDLEEREDLRIEAIRNIIKKKEIEIEKSSIKKLPNSKNTARLQDETPKVIEYPTNKGLYQEIMSGTISTRTAPRGYKHFLINGINNSISEMFGEMREKYVGDQKFDVLDNMDWIFNELIIVKEHIANCCPPHWNIFEVYFDQYYKELHSLITDLVESEPETIIILDILAFDKTFQDTLKQDFGFTKSEVKSVIGDKEKETLFKDYLNLIVVKMTEWIGNLEKAEFDVFLERSTPPHSDSDGLLFLDGTKTCFQMFTQQVEVAAGTNQAKILVGVVERFSDLLTKRQKNWISKISEEIKKQINYNHKYDIDPESITPEDECPGGLVEYLIAVSNDQMKAADYAVAISSKYGKLVSKVYEKQITNHLEGTLDGFAEVAQCSSLGLITLMFDDLRKPYQEIFSKTWYMGSQAQQIADTLDEYLLDIKPQMNSVLFVNFIDNVIGETIIKFLTALSFEHSFKNKNNKFLEAMKRDFEIFYQLFVKVLDGNESKDTLITQNFTVMEFFMDLSCEPIDSILDIWQKYLEVYWDSRIDLLVGILKCRKDVSSSERKKIVQQATEMLHEYRRNMEANGVDREPTLMRRFVLEFEKQ |  | binds |  | binds
